From the nanobody polyreactivity screen of Harvey et al. (2022)

Test: yeast display, Sf9 membrane polyspecificity reagent, FACS + sequencing; frameworks hold sequencing errors
Procedure, shortened: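 After 36–48 hours of galactose induction, yeast (Saccharomyces cerevisiae BJ5465) displaying a synthetic nanobody library were stained at 4 °C for 1 hour with 10% biotinylated, detergent-solubilized Sf9 membrane reagent. Streptavidin microbeads enriched the stained cells before FACS sorting into low and high (top ~1%) gates on anti-HA and streptavidin fluorescence. Each clone's polyreactivity label reflects its gate of origin.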

Sequence | polyreactivity (PSR sort gate)
QVQLVESGVGLVQAGGSLRLSCAATGFTFDENAMGWYRQAPGINYSGASTYYAYSVKGRFTISRDNAKNTVYLQMNSLKPEDTAVYYCAAEVVAQMNYWGQGTQVTVSS | low polyreactivity
QVQLVESGVGLVQAGGSLRLSCADSGFTFRRYVMGWYRQAPGKERELVAGISASGDSTYYADSVKGRFTISRDYAKNTFYLQMNSLKPEDTAVYYCATVARYRYLESYYWGQGTQVTVSS | high polyreactivity
QVQLVESGVGLVQAGGSLRLSCADSGSIFVINAMGWYRQASGKERELVATIRARAGSTYYADSVKGRFTISRDNAKNTVYLQMNSLKPEDTAFYYCAARLKSYRVEYWGQGTQVTVSS | high polyreactivity
QVQLVESGVGLVQAGGSLRLSCASSGFIFNYNTMGWYRQAPGKETELVAAISSSGGSTYYADSVKGRFTISRDNAKNTVYLQMNSLKPEDTAVYYCGAGANAQRVPNGDYWGQGTQVTVSS | low polyreactivity
QVQLVESGVGLVQAGGSLRLSCASSGFTFYYYAMGWYRQAPGKERELVAAIDTSDGSTYYADSVKGRFTISRDNAKNTVYLQMNSLKPEDTAVYYCAAEVDWVPFLLDYWGQGTQVTVSS | low polyreactivity
QVQLVESGVGLVQAGGSLRLSCASSGRTFPTYAMGWYRQAPGKERELVAAIRISGGRTYYADSVKGRFTISRDNAKNTVDLQMNSLKPEDTAVYYCAADTYASYESWGQGTQVSVSS | high polyreactivity
QVQLVESGVGLVQAGGSLRLSCASSGRTFYDYAMGWYRQAPGKERELVATISSRGDGTYYADSVKGRFTISRDYAKITVCLLMNSLKPEDTAVYYCAARYRRVHSGYGYWGQGTHVTVSS | high polyreactivity
QVQLVESGVGLVQAGGSLRLSSAASGIIFVSNAMRWYRQAPGKERELVATINWSDDSTYYADSVKGRFTISRDNAKKTVSLQMNSLKADYTAVYYCYCGQGTQVTVSS | low polyreactivity
QVQLVESGVGLVQAGGSLSLSCAASGRIFPVYAMGWYRQAPGKERELVATISYSGSSTYYADSVKGRFTISRDNAKNNVYLLMNSLKPEDTAVYYCNADAFGPQCVQYYYWGQVTQVTVSS | low polyreactivity
QVQLVESGVGLVQAGGTLRLSCAASGFTFVRYAMAWYRQAPGKEREFVASISARGCNTFYADSVKGRFTISRDNAKNTVYLQMNSLKPEDTAVYYCAKRGPYGTGYGYWGQGTQVTVSS | high polyreactivity
QVQLVESGVGLVQAGGTLRLSCAASGITFLQYAMGWYRQAPGKERELVAGITRSGGAGTYYADSVKGRFTISRDNAKNTVYLQMNSLKPEDTAVYYCAAETDTPSLYQDMYYWGQGTQVTVSS | high polyreactivity
QVQLVESGVGLVQAGGTLRLSCAASGRIFTINAMGWYRQAPGKEREFVAAISGSGGTTYYADSVKGRLTISRDNAKNTVYLQMNSLKPEDTAVYYCAVSQSWYWYYASDYWGQGTQVTVSS | low polyreactivity
QVQLVESGVGLVQARGSLRLSCAASGITFNYYAMGWYRQAPGKESELVATINRSGGTTYYADSVKGRFTISRDKAKNTDYLQMNSLKQEDTAVYDCNARYTSLGRYHSGYEYWGQGTQVTVSS | high polyreactivity
QVQLVESGVGLVQARGSLRLSCAASGSIFRRNAMGWYRQAHGKERELVAAISASGGRTYADSVKGRFTISRDNSKNTVYFQMKSLNPEDKAVYYCAARCYCSSRFDYWGLGTQVTVSS | high polyreactivity
QVQLVESGVGLVQGGGSLRLTCPASGFTFDWYAMGWYRPAPGKERELVAAISSSGTSTYYADSVKGRFTISRDTAKNTVYLQMNSLKPEDTAVYYCAARWYYVTPLRRYCYWGQGTQVTVSS | high polyreactivity
QVQLVESGVGLVQSGGSLRLSCAASGRISAQYTMGWYRQAPGIERELFAAITWSGTNTYYADSVKGRFTISRDNAKNTVYLQFNSLKPEDTAVYYCATAVYLVIFEYDYWGQGTHVTVSS | low polyreactivity
QVQLVESGVGVVQAGGSLRLSCAASGRTFLRYTMGGYRQAPGKEREFVAAISYDTSSTYYADSVKGRFTISRDNAKNTVYLQMNSLKPEDTAVYYCAATLSRVSLSYGYWGLGTQVTVSS | low polyreactivity
QVQLVESGVRLVQAGGSHRLSCAANGFIFRRYAMGWYIQAPGKERELVAAITRSGGTTYYADSVKGRFTISRDNAKNTVYFQLNSLKPEDTAVYYCDARRPYTYDSGDILEMDHWGQGTQVTVSS | high polyreactivity
QVQLVESGVVLDQAGGILRLSCAASGFIFARYDMGWYRQAPGKERELVATISYTGGRTYYADSVKGRFTISRDNAKNTVYLQMNSLKPEDTAVYYCAAVVQSSEPVEYDYWGQGTQVTVSS | high polyreactivity
QVQLVESRGGIVQAGGSLRLSCAASGSIFEQYAMGLYRQAPGKERELVAAISKRGTSTNYADSVKGRVTISRDNAKNTVYLQMNSLKPEDTAVYYCNADSRHRRNYDYWGQGTHVTVSS | high polyreactivity
QVQLVESRGGIVQAGGSLRLTCAASGRTFRSKVMGWYRQAQGKERELVADITYSGGNTYYADSVKGRFTISRDNAKNTDYLQMNSLKPEDNAVYYCATGWSWWTFDYWGQGTQVTVSS | high polyreactivity
QVQLVESRGGLDQAGGSLRLSCAASGSIFGFYAMGWYRQAPGKERELVAAISSDGGSTYYADSVKGRFTISRDNAKNTVYLQMNSLKPEDTAVYYCAAAHGSIFDSTYYEYYYWGQGTQVTVSS | low polyreactivity

Sequence | polyreactivity (PSR sort gate)
QVQLVESRGGLVHAGGSLGLSCAASGSTFGVNAMGWYRQAPGKERELVASISSGGGTYYADSVKGRFTISRDNSKNTVYLQMNSLKPEDTAVYYCAAVYYWYDSYAGYDYWGQGTQVTVSS | low polyreactivity
QVQLVESRGGLVQAGCSLRLSSAASGLIFYFYTMGWYRQAPGKERELVDSIRSGDSTNYADSVKGRFTISRDNAKNTVYLQMNSLKPEDTAVYYCNARYRYPYYLSVAEKYDYWGQGTQVTVSS | high polyreactivity
QVQLVESRGGLVQAGGRLRLSCAASGLIFYKYAMGWYRPAHGKERQLVAAITSGGGSTYYADSVKGRFTISRDNAKNTVYLQKNSLKPEDSAVYYCAATRPATYAAYDYWGHGTQVTVSS | high polyreactivity
QVQLVESRGGLVQAGGSLLLSCAASGIIFRYYTMGWYRQAPGKERELVAAIERSGGNTYYADSVKGRFTISRDNAKNTVYLQMNSLKPEDTAVYYCAARYATWYFRRGRKTSDYDYWGQGTQVTVSS | high polyreactivity
QVQLVESRGGLVQAGGSLRLRCAASGYIYYQYAMGWSRHAPGKETALVGAISLSGGMTYYADSVKGRFTISRDNAKNTVYLQMNSLKPEETGVYFCNAQSRVWCKVYYWGQGTQVTVSS | high polyreactivity
QVQLVESRGGLVQAGGSLRLSCAASAFTFDYYVMGWYIQAPGKERELVAAISLRSGRTYYADSVKGRFTISRDNAKNTVYLQMNSLKPEDTAVYYCAAESRGVGAYYYWGQGTQLTVSS | high polyreactivity
QVQLVESRGGLVQAGGSLRLSCAASGFTFRAYAMGWYREAPGKERELVAAISTGGGSTYYADSVKGRFTISRDNAKITVYFQMNSLKPEDTAVYYCNALPQRRYYYWGQGTHVTVSS | high polyreactivity
QVQLVESRGGLVQAGGSLRLSCAASGFTFSAYAMGWYRQAPGKERELVAAISWSGSRTYYADSVKGRFTISRDNAKNTVYLQMNSQKPEDTAVYYCAKEPYDTFGFYDYDYWGQGTQVTVSS | low polyreactivity
QVQLVESRGGLVQAGGSLRLSCAASGFTFYKYAMGCYRQAPGKERELVAAITGSGGSTYYADSVKGRFTISRDNAKNTVYLQMNSLKPEDTAVYYCATRYPTYYGYHKFDYWGQGTQVTVSS | high polyreactivity
QVQLVESRGGLVQAGGSLRLSCAASGFTFYYYAMGWYRQAPGKERELVAAISGRGGSTYYADSVKGRFTISRDNAKNSVYLQMNSLKPEDTAVYYCAAVPIVRLEYWGQGTQVTVSS | high polyreactivity
QVQLVESRGGLVQAGGSLRLSCAASGIIFQSYTMGWYRQAPGKERELVAAISTSGSTYYADSVKGRFTISRDNAKNTVYLQMNSLKPEDTAVYYCATYRYRIWWWGEYDYWGQGTQVTVSS | high polyreactivity
QVQLVESRGGLVQAGGSLRLSCAASGNTFYGYAMGWYRPAPGKERELVASITLSGDSTYYADSVKGRFTISRDNAKNTVYLQMNSLKPEDTAVYYCAGVYTYPLGYYHYTYDYWGQGTQVTVSS | low polyreactivity
QVQLVESRGGLVQAGGSLRLSCAASGPTFRNTAMGWSRQAPGKDREFVAVISNTGGSTYYADSVKGRFTISRDNAKNTVYLQMNSLKAEDTAVYYCGVRPRYSQYYYWGQGTQVTVSS | high polyreactivity
QVQLVESRGGLVQAGGSLRLSCAASGRIFGLYAMGWYRQAPGKERELVAAYADSVKGRFTISRDNAKNTVYLKMNCLKPEDTAVYYCAKGPLYAGYSIDLRDFNYWGQGTQVNVSS | low polyreactivity
QVQLVESRGGLVQAGGSLRLSCAASGRIFGTNAMGWYRQAPGRERELVATITRGGGNTYYADSVKGRFTISRDIAKNTVYLQMNSLKPEDTAVYYCAAKFHRFAWYSHYDYWGHGTQVTVSS | low polyreactivity
QVQLVESRGGLVQAGGSLRLSCAASGRIFHYYVMGWYRQAPGKERELVARITFNGGGTYYADSVKGRFTISRDIAKNTVYLQMNRLKPEDTAVYYCNARYPWRDWEDDYWGQGTQVTVSS | low polyreactivity
QVQLVESRGGLVQAGGSLRLSCAASGRIILIYAMGWYRQAPGKERELVGDISKGGSSTYYADSVKGRVTISRDNAQNTVYLQMNSLKPEDTAVYYCAASGRWTGRQAAYDYWGQGTQVTVSS | high polyreactivity
QVQLVESRGGLVQAGGSLRLSCAASGRIIPSYMGWYRQAPGKQRELVARISNTGSTYYADSVKGRFTISRDNAKNTVYLQMNRLKPEDTAVYYCAAVYIFRVFSHPPYDYWGQGTQVTVST | low polyreactivity
QVQLVESRGGLVQAGGSLRLSCAASGRIYSVYDMGWYRQAPGKESEFVAAIRSSGDSTYYADSVKGRFTISRDNAKNTVYLQMNSLKPDDTAVYYCAADVYRYRVRGLNYWGQGTQVTVSS | high polyreactivity
QVQLVESRGGLVQAGGSLRLSCAASGRLFYSYAMGWNRQEPGKEREFVAAISRSGARTYYADSVKGRFTISRDNAKNTVYLQMNSLKPEDTAVYYCAADDFSTVEYDYWGQGTQVTVSS | low polyreactivity
QVQLVESRGGLVQAGGSLRLSCAASGRTFLGYAMGWYRQAPGKERELVAAISYSGSSTYYADSVKGRFTISRDNAKNTVYLQMNSLKPEDTAVYYCAAQFYFLFDYWGQGTQVTVSS | low polyreactivity
